Measurements taken from paper PMC6368630.

How the values were obtained:
Test in all cases: BRET (mG protein recruitment) in HEK293 cells
Venus-tagged mGsi = details: mean ± s.e.m., read off a plot
Venus-tagged mGsq = details: highest WNT-5A concentration shown (about log 3 ng/ml); n = 5; mean ± s.e.m.; parent: est. 101; read off a plot
Venus-tagged mGs = details: highest WNT-5A concentration shown (about log 2.5-3 ng/ml); n = 8; mean ± s.e.m.; parent: est. 100.1; read off a plot
Venus-tagged mG13 = details: n = 6, mean ± s.e.m., read off a plot

Substance: SNAP-FZD6-Rluc8 (from UniProt O60353) R416A
- response (Venus-tagged mGsi; highest WNT-5A concentration shown (about log 3.5 ng/ml), wild type n = 7, R416A n = 6, parent: est. 104): 109 % of vehicle

Substance: SNAP-FZD5-Rluc8 (from UniProt Q13467) R449A
- response (Venus-tagged mGsq): 103 % of vehicle

Substance: mouse SMO-Rluc8 (from UniProt P56726) R455A
- response (Venus-tagged mGsi; SAG alone, at the peak of the bell-shaped curve (about log -9.5 M), n = 6, parent: est. 100.9): 102 % of vehicle

Substance: SNAP-FZD7-Rluc8 (from UniProt O75084) R470A
- response (Venus-tagged mGs): 102 % of vehicle

Substance: hFZD4-Nluc (from UniProt Q9ULV1) K436A
- response (Venus-tagged mG13; highest WNT-5A concentration shown (about log 3-3.5 ng/ml), parent: est. 105.5): 106 % of vehicle
- response (Venus-tagged mG13; second-highest WNT-5A concentration shown (about log 2.5 ng/ml), parent: est. 100.0): 103 % of vehicle
